Experimental findings from the nanobody polyreactivity screen of Harvey et al. (2022) are described below.

The nature of this data set: yeast display, Sf9 membrane polyspecificity reagent, FACS + sequencing; frameworks hold sequencing errors. The method, boiled down: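 Nanobodies came from a synthetic yeast display library in Saccharomyces cerevisiae BJ5465, induced with galactose for 36–48 hours and stained for 1 hour at 4 °C with 10% biotinylated, detergent-solubilized Sf9 membrane reagent. Cells were enriched on streptavidin microbeads and then FACS-sorted, with low and high (top ~1%) gates set on anti-HA fluorescence for expression and streptavidin fluorescence for reagent binding. Each polyreactivity label reflects the gate a clone came from. Genes were amplified by colony PCR, sequenced by MiSeq 2 × 250 and filtered by CDR length.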
With “QVQLEESGGGLVQAGGSLRLSCAASGRIFAYYAMGLYRQAPGKERELVAAITTNGGGTYYADSVKGRFTISRDNAKNTVYLQMNSLKPEDTAVYYCNAVKQRSSFYDYWGQGTQVTVSS”, the “polyreactivity (PSR sort gate)” value was “low polyreactivity”.

On to “QVQLVESGGGLVQAGGSLRLSCAASGRTFRYYAMGWYRQAPGKEREFVAAITRSAVSTYYADSVKGRFTISRDNAKNTVYLQMNSLKPEDTAIYYCAVDSSLVKVGFDYWGQGTQVTVSS”, for which the “polyreactivity (PSR sort gate)” value is on record as “high polyreactivity”. The result for “QVQLVESGGGLVQAGGSLRLSCAASGITFYEYAMGWYRQAPGKEREFVAAIDDGDSSTYYADSVKGRFTISRDNAKNTVYLQMNSLKPEDTAVYYCNADPYYDYSLNWGDYWGQGTQVTVSS” reads “low polyreactivity”; that for “QVQLVESGGGLVQAGGSLRLSSAASGSIFPYYAMGWYRQAPGKERELVAAISWSGTSTYYADSVKGRFTISRDNAKNTVYLQMNSLKPEDTAVYYCNAGYYHFYASGYDYWGQGTQVTVSS”, “low polyreactivity”. The result for “QGQLVESGGGLVQAGGSLRLSCAASGYTFNYNTMGWYRQAPGKVRELVAAINTSGSTYYADSVKGRFTISRDNAKNTVYLQMNSLKPEDTAVYYCAVRVAYKYNYWGQGTQVTVSS” reads “high polyreactivity”.

On to “QVQLVESGGGLVQAGGSLRLSCAASGRTFHYNVMGWYRQAPGKERELVAAITNTGGSTYYADSVKGRFTISRDNAKNTVYLQIYSLKPEDTAVYYCAAVIWGRRYGAYPYEYWGQGTQVTVSS”, for which the “polyreactivity (PSR sort gate)” value was “low polyreactivity”. The result for “QVQLVESGGGLVQAGGSRLSCAASGRIFPVYAMGWYIQAPGKERELVAGINSSGDNTYYADSVKGRFTISRDNAKNTVYLQMNSLKPEDTAVYYCAAYYPYYVPYGFDYCGQGTQVTVSS” reads “low polyreactivity”. For the sequence “QVQLVESGGGLVQAGGSLRLSCAASGRTFVSNSMGWYRQAPGKERELVAAISSSGGSTYYADSVKGRFTISRDNEKNTVYLQMNILKPEETAVYYCANDPWYSKYRYDHWGQGTQVTVSS”, the “polyreactivity (PSR sort gate)” value is listed as “high polyreactivity”.

On to “QVQLVESGGGLVQAGGSLRLSCAASGSTLARYAMGWYRQAPGKERELVAAISSDGRTYYADSVKGRYTISRDNAKNTVYLQIYSLKPEDTAVYYCATLRPYAYPQYDSWGQGTQVTVSS”, for which the “polyreactivity (PSR sort gate)” value is recorded as “high polyreactivity”. The result for “QVQLVESGGGLVQAGCSLRLSCAASGRTFGGNAMGWYRQAPGKERELVAAISKSGGRTYYADSVKGRFTISRDNAKNTVYLQMNSLKPEDTAVYYCNKVLSVSQAGGFDYWGQGTQVTVSS” reads “high polyreactivity”. The result for “QVQLVESGGGLVQAGGSLRLSCAASGSTFPAYAMGWYRQAPGKERELVAAITRGGSTNYADSEKGRFTISRDNAKNTVYLQMNSLKPEDTAVYYCAADKRYWWRYNYWASRSRGESWGQGTQVTVSS” reads “high polyreactivity”; that for “QVQLVESGGGLVQAGGSLRLSCAASGFTIYPYAMGWYRQAPGKERELVAAISQRGGRTSYADSVKGRFTISRDNAKNTVYLQMNSLKPEDTAVYYCAARFWATEGYWGQGTQVTVSS”, “high polyreactivity”. Turning to “QVQLVESGGGLVQAGGSLRLSCAASGLTFWPYAMGWYRQAPGKERELVAAISSSGRTYYADSVKGRFTISRDNAKNTVYLQMNSLKPEDTAVYYCARRFWFHYYGYDYWGQGTQVTVSS”, the “polyreactivity (PSR sort gate)” value is given as “high polyreactivity”.

Take “QVQLVESGGGLVQAGGSLRLSCAASGRNLYYYAMGWYRQAPGKERELVAAITSGGSTYADSVKGRFTISRDNAKNTVYLQMNSLKPEDTAVYYCNARPVYGSRFYSAVRMEYWGQGTQVTVSS”: the “polyreactivity (PSR sort gate)” value is reported as “low polyreactivity”. The result for “QVQLVESGGGLVQAGGSLRLSCAASGFTFISNAMGWYRQAPGKERELVAAISSSGGRTFYADSVKGRFTISRDNAKNTDDLQMNSLKPEDTAVYYCNADRSLLYSRKIEYDYWGQGTQVTVSS” reads “low polyreactivity”; that for “QVQLVESGGGLVQAGGSLRLSCAASGSTFHSYVMGWYRPAPGKERELVAAITSRGGSTNYADSFKGRFTISRDNAKNTVYLQLNSLKPEDTAVYYCAADVYLGWSYFRYDYWGQGTQVTVSS”, “low polyreactivity”. Then “QVQLVESGGGLVQAGGSLRLSCAASGLTFAINTMGLNRQAPGKESELVAAITGSGGSTYYADSVKGRFTISRDNAKYTVYLQMKSLKPEDTAVYYCAAELLYVQGYAMDFWGQGTQVTVSS”, with “low polyreactivity”; and “QVQLVESGGGLVQAGGSLRLSCAASGITFDLYDMGSYRQAPGKERELVAAITDADSTYYADSVKGRFTISRDNAKNTVLLQMNSLKPEDTAVYYCAATSYSHTKIRYDYWVQGTQVTVSS”, with “low polyreactivity”. The result for “QVQLGESGGGLVQAGGILRLSCAASGSTFFYYAMGWYRQAPGKERELVATINYNGGSTSYADSVKGRFTFSRDNAKNTLYLQMISLIPEDTAVYYCAADLWVWYYKPYDYWGQGTQVTVSS” reads “low polyreactivity”. With “QVQLVDSGGGLVQAGGSLRLSCAASGSTFWFYAMGWYRQAPGNERELVAVISNSGSTYYADSVKGRFRISRDNAKNTVYLQMNSLKPEDTAVYYCNKDGGGDSYWYDYWGQGTQVTVSS”, the “polyreactivity (PSR sort gate)” value was “low polyreactivity”.

Take “QDQLEESGGGLVQAGGSLRLSCAASGFIFNHYAMGWYRQAPGKEREFVAAISWSGGSTYYADSVKGRFTISRDYAKNTVYLQMNSLKPEDTAVYYCAASYNGLWHGDYDYWGQGTQVTVSS”: the “polyreactivity (PSR sort gate)” value is on record as “low polyreactivity”. “QVQLVESGGGLVQAGGSLRLSCAASGLTFWYYDMGWYRQAPGKERELVAAISRCGGTTYYADSVKGRFTISRDNAKNSVYLQMNSLKPEDTAVYYCAAVSFGFWVTEYYYWGQGTQVNVSS”: the “polyreactivity (PSR sort gate)” value was “high polyreactivity”. Then “QVQLVESGGGLVQAGGSLRLSCAASGSIFGDYAMGWYRQAPGKERELVAAITWSGGSTTYADSVKGRFTISRDNAKNTVYLQMNSLKPEDTAVYCCAVYGWRFYSYDDYFDFNYWGQGTQVTVSS”, with “low polyreactivity”; and “QVQLVESGGGLVEAGGSLRLSCAASGSIFRINAMGWYRQAPGKERELVAAISTLSGRTYYADSVKGRFTISRDNAKITVYLQMNSLKPEDTAVYYCAVGQARAGLIGGYWGQGTQVTVSS”, with “high polyreactivity”. The result for “QVQLVESGGGLVQAGGRLRLSCAASGSIFVGNTMGWYRQAPGKERELVAAISRTARTYYADSVKGRFTISRDNAKNTVYLQMNSLKPEDTAVYYCARASTQVKYGYEYWGQGTQVTVSS” reads “high polyreactivity”.

In the case of “QVQLVESGGGLVQAGGSLRLSCAASGLTFKSYTMGWYRQAPGKERELVATISGSGTRTYYADSVKGRFTISRDNAKNTVYLQMNSLKPEDTAVYYCARVIWYNNYFRYSGYRSDYWGQGTQVTVSS”, the “polyreactivity (PSR sort gate)” value is recorded as “high polyreactivity”. The result for “QVQLVESGGGLVQAGGSLRLSCAASGRIFPYYAMGWYRQAPGKERELVASTNYADSVKGRFTISRDNAKNTVYLQMNSLKPEDTAVYYCAADGYRYSVYLIRNPMDYWGQGTQVTVSS” reads “low polyreactivity”; that for “QVQLVESGGGLVQAGGSPLLSCAASGSIFPSYDMGWYRQAPGKERELVAPLSWSGSTTYSADSVKGRFTISRDNAKNTVSLQMNSLKPEDTAVYYCAVDSNPPDWWAVIYGYWGQGTQVTVSS”, “low polyreactivity”.

“QVHLVESGGGLVQAGGSLRLSCAASASTLGSNTMGWYRQAPGKERELVATISRRGGSTYYADSVKGRFTISRDNAKYTVYLQMNSLKPADTAVYYCAARPVYKFGSWGQGTQVTVSS”: the “polyreactivity (PSR sort gate)” value is “high polyreactivity”. The result for “QVQLVESGGGLVQAGGSIRLSCAASGSTYFVYTMGWYRQATGQERELVAAISGSGRSTSYADSVKGRFTISRDNAKNTVYLQMNSLKPEDNAVYYCAARSHVYLRGSTFEFNYWGQGTQVTVSS” reads “high polyreactivity”. With “QVQLVESGGGLVQAGGSLRLSCAASGFTYFYYAMGSYRQAPGKERELVASISWSGGSTYYADSVKGRFTISRDNAKNTVYLQMNSLKPEDTAVYYCAADVPFGGDYWGQGTQVTVSS”, the “polyreactivity (PSR sort gate)” value is “low polyreactivity”.

Regarding “QVQLVESGGGLVQAGGSLRLSCAASGFTFGSYAMGWYRQAPGTERELVADISRRGGRTYYADSVKGRFTISRDNAKNTVYLQMNSLKPEDTAVYYCNAVSYVYFYSSSYDYWGQGTQVTVSS”, the “polyreactivity (PSR sort gate)” value is given as “high polyreactivity”.

As for “QVQLVESGGGLVQAGGSLRLSCAASGFTFRFYAMGRYRQAPGKERELVAAISGSGGSTYYADSVKGRFTISRDNAKNTVFLQMNSLKPEDTAVYYCNAGRWLYWYDRSDYWGQGTQVTVSS”, the “polyreactivity (PSR sort gate)” value is reported as “high polyreactivity”. Then “QVQLVESGGGLVQAGGSLRLSCAASGSIFDVNAMGRYRQAPGKERELVAAISQRGTRTYYADSVKGRFTISRDNAKNTVYLQLNSLKPEDTAVYYCNRGGWRQYDSWGQGTQVTVSS”, with “high polyreactivity”; and “QVQLVESGGGLVQAGGSLRLSCAASGSTFYRYAMGWYRQAPGKERELVATITNSGGSTYYADSVKGRFTISRDNAKNTVYLQMNSLKPEDTAVYYCARVRSRNTGYYYWGQGTQVTVSS”, with “high polyreactivity”. Then “QVQLVESGGGLVQAGGSLRLSCAPSGSISFSNALGWYRQAPGKERELVASITSGGSTKYADSVKGRFTFSRDNAKNTVYLQMNSLQPEDTAVYYCNADSPESVYDEYDYWGQGTQVTVSS”, with “low polyreactivity”; and “QVQLVESGGGLVQAGGSLRLSCAASGRTFLGYAMGWYRQAPGKERELVAGITSGGRTYYADSVKGRFTNSRDNAKNTVYLQMNSLKPEDTAVYYCAADTHGYDPMDYWGQGTQVTVSS”, with “high polyreactivity”; and “QVQLVESGGGLVQAGGSLRLSCAASGSTLSAYVMGWYRQAPGKERELVAAISQSADSTYYADSVKGRFTILRDNAKNTVYLQMNSLKPEDTAVYYCAAEYPYIYRFDYWGQGTQVTVSS”, with “low polyreactivity”. Consider “QVQLVESGGGLVQAGGSLRLSCAASGSTLGYYDMGWYRQAPGKERELVAAITKSGGSTYYADSVKGRFTISRDNEKNNVYLQMNSLKPEDTAVYYCAAVYVSPKPGTRYYYWGQGTQVTVSS”, for which the “polyreactivity (PSR sort gate)” value is reported as “high polyreactivity”.

Consider “QVQLVESGGGLVQAGGSLRLSCAASGRIYSVYTMGWYRQAPGKERELVATISSGGRTNYADSVKGRFTISRDNAKNTVYLQMNSLKPEDTAVYYCAADWVYPPGLKDSVHFGEYDYWGQGTQVTVSS”, for which the “polyreactivity (PSR sort gate)” value was “low polyreactivity”. Then “QVQLVESGGGLVQAGGSLRLSCAASGFTFDNYVMGWYRQAPGKERELVAAISKSGTSTYYADSVKGRFTISRDNAKNTVYLQMNSLKPEDTAVYYCAAALPGYGDYYYWGQGTQVTVSS”, with “high polyreactivity”.
